Measurements from article doi:10.1101/2025.08.03.668247, “The structure of Egalitarian in complex with the K10 mRNA localization signal reveals a modular binding surface required for function”.
Residue numbers refer to the chain shown, from its start.

Experiments:
Experiment in all cases: fluorescence anisotropy; FA: 20 mM HEPES-NaOH pH 7.5, 100 mM NaCl, 10% glycerol, 20 C, 10 nM FAM-RNA; competition: 150 nM Egl512-819 + 10 nM FAM-K10 TLS, same buffer
Details in all cases: protein: recombinant; tags: N-terminal GST; label: 5'-6-FAM; hairpin with two bulges
K751A = biological target: T1, K751A (Drosophila melanogaster, UniProt Q9W1K4 512-819, K751A)
T1 sequence: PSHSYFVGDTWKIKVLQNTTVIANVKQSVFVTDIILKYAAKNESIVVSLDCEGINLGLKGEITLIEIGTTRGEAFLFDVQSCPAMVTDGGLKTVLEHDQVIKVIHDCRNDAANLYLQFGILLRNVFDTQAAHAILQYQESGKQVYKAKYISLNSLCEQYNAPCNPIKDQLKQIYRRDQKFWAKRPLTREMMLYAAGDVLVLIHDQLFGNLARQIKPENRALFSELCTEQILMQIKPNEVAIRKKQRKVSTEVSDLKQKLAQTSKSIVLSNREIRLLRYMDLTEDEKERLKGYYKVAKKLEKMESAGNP

D617A/R619A/N620A = biological target: T2, D617A/R619A/N620A (Drosophila melanogaster, UniProt Q9W1K4 512-819, D617A;R619A;N620A)
T2 sequence: T1 sequence with D106A, R108A, N109A, A240K

R782A = biological target: T3, R782A (Drosophila melanogaster, UniProt Q9W1K4 512-819, R782A)
T3 sequence: T1 sequence with A240K, R271A

K758A = biological target: T4, K758A (Drosophila melanogaster, UniProt Q9W1K4 512-819, K758A)
T4 sequence: T1 sequence with A240K, K247A

Egl512-1004 = biological target: T5, Egl512-1004 (Drosophila melanogaster, UniProt Q9W1K4 512-1004)
T5 sequence: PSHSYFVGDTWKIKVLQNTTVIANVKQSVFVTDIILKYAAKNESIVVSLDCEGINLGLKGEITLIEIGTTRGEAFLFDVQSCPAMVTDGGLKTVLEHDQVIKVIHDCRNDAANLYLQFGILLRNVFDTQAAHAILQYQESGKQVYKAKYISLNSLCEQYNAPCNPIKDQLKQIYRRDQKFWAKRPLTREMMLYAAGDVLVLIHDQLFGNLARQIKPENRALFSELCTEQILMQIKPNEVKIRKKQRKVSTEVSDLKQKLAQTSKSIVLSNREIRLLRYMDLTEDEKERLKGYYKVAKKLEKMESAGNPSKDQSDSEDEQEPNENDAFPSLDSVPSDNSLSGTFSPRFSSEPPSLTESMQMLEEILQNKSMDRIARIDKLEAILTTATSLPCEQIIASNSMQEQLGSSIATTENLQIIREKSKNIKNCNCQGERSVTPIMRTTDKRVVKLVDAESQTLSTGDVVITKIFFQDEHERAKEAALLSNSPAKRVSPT

R753E = biological target: T6, R753E (Drosophila melanogaster, UniProt Q9W1K4 512-819, R753E)
T6 sequence: T1 sequence with A240K, R242E

Binder: CUUGAUUGUAUUUUUAAAUUAAUUCUUAAAAACUACAAAUUAAG (structured_RNA) [K10 TLS (FAM)]
- Kd (K751A): 140 ± 10 nM
- Kd (D617A/R619A/N620A): 273 ± 12 nM
- Kd (R782A): 284 ± 13 nM
- Kd (K758A): 319 ± 19 nM
- Kd (Egl512-1004): 144 ± 6 nM
- Kd (R753E): 185 ± 9 nM
